According to the nanobody polyreactivity screen of Harvey et al. (2022):

Experiment: yeast display, Sf9 membrane polyspecificity reagent, FACS + sequencing; frameworks hold sequencing errors
In short: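 Synthetic nanobody libraries on Saccharomyces cerevisiae BJ5465 were galactose-induced for 36–48 hours, stained 1 hour at 4 °C with 10% biotinylated, detergent-solubilized Sf9 membrane reagent and enriched on streptavidin microbeads. FACS then separated cells into low and high (top ~1%) gates by anti-HA (expression) and streptavidin (reagent binding) fluorescence. Genes were colony-PCR amplified, MiSeq 2 × 250 sequenced and CDR-length filtered. A clone's polyreactivity label is that of its gate of origin.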

Sequence	polyreactivity (PSR sort gate)
QVQLVESGGGLVQAGGSLRLSCAASGSIFRWYAMGWYRQAPGKERELVAGISSTGGSTYYADSVKGRFTISRDNAKNTVYLQMNSLKPEDTAVYYCAVVSYPSAFRRYNYWGQGTQVTVSS	high polyreactivity
QVQLVESGGGLVQAGGSLRLSCAASGNIFGLYAMGWYRQAPGTERELVAAISFSDTSTYYADSVKGRYTISRDNAKNTVYLQMNSLKPEDTAVYYCAAELWFNNGEHNYWGQGTQVTVSS	high polyreactivity
QVQLVESGGGLVQAGGSLRLSCAASGSTFGNNAMGWYRQAPGKERELVASISWSSGRTYYADSVKGRFTISRDNAKNTVYLQMNSLKREDTAVYYCAAPLPVDVVWDRSAEVRYDYWGQGTQVTVSS	low polyreactivity
QVQLVESGGGLVQAGGSLRLSCAASGSTFVVYAMGWYRQATGKERELVAAISANVGGTYYADSVKGRFTISRDNAKNTVYLQMNSLKPEVTAVYYCAADYAYNYFWRPGDYWGQGTQVTVSS	low polyreactivity
QVQLQESGGGLVQAGGSLRLSCAASGYISLAQTIGWYRQAPGKEREFVASIALGSSTYYTDSVKGSFTISRDNANTPVYLQMNSLKPEDTAVYYCAARVGASYAHDYWGQGTQVTVSC	low polyreactivity
QVQLVESGGGLVQAGGSLRLSCAASGRTFLRNAMGWYRQAPGKERELVAAISSGGGRTYYADSVKGRFTISRDNAKNTVYLQMNSLKPEDTAVYYCAALYQYLGGVYEGYYWGQGTQVTVSS	high polyreactivity
QVQLVESGGGLVQAGGSLRLSCAASGSTFVHYAMGWYRQAPGKERELVAAINDGGSTHYADSVKGRFTISRDNAKNTVYLQMHSLKPEDTAVYYCAAEYVWYRYPDYWGAYDYWGQGTQVTVSS	low polyreactivity
QVQLVESGGGLVQAGGSLRLSCAASGSTFSGYAMGWYRQAPGKERELVAAITSDGSTYYADSVKGRFTISRDNAKNTVYLQMNSLKPEDTAVYYCAVGIPYRGRQGYYGYYTYDYWGQGTQVTVSS	high polyreactivity
QVQLVESGGGLVHAGGSLRLSCAASGFTLRKYVMGWYRQAPGKERELVAAITSYASSTYFADSVKGRFTISRDNSKNTVYLQMNSLKPEDSAVYYCAARRYGEPYGYWGQGTQVTVSS	high polyreactivity
QVQLVESGGGLVQAGGSLRLSCAASGYIFSRNDRGWYRQAPGKERELVARITGSAGSTYYADSVKGRFTISRDNAKNTVYLQMNSLKPEDTAVYYCARRWYTWRKNKYCRMDYWGQGTQVTVSS	low polyreactivity
QVQLQESGGGLVQAGGSLRLSCAASGNIFLGDTMGWYRQAPGKEREFVAGIARGGNPYYADSVKGRFTISRNNAKNTVFLQKNSLKPEDTAVHYCAVQRSHASDYNYWGQGTQVTVSS	low polyreactivity
QVQLVESGGGLVQAGGSLRLSCAASGSTFGRNAMGWYRQAPGKERELVASISWGGGSTYYADSVKVRFTISRDNAKNNVYLQMNSLKPEDTAVYYCAAGLAYWYWRGYDYWGQGTQVTVSS	high polyreactivity
QVQLEESGGGLVQGGGSLRLSCAASGSNFQDNAMGWYRQAPGKERELVAAITGRDASTYYADSVKGRFTISRDNAKNTVYLQLNCLKPEDTAVDYCYWGQGTQVTVSS	low polyreactivity
QVQLVESGGGLVQAGGSLRLSCAASGSIFRQYAMGWYRQAPGKERELVAAITYSGGNTYYADSVKGRFTISRDNAKNTVYLQMNSLKPEDTAVYYCAADYGSRSWEYNYWGQGTQVTVSS	low polyreactivity
QFQLVESGGGLVQAGGSLRLSCAPSGFIISSNAMGGYRQAPGKERELVAAISARGGSTYYADSVKRRFTISRDNAKNTVYLQMNSLKPEDTAVYYCNTDYKTTGDYWGEGTQVTVSS	high polyreactivity
QVQLVESGGGLVQPGVSLRLSCAASGRTSSSYTMGWYRQEPRKECELVAAITSGVRTYYADSVKGRFTISRDNAKNTVYLQMKSLKPEDTAVYYCNARYVPYTYCRKYFKPYDYWGLGTQVTVSS	high polyreactivity
QVQLVESGGGLVQAGGSLRLSCAASGGTFPWYTMGWYRQAPGKERELVAAISVSGDSTHYADSVKGRFTISRDNAKNTVYLQMNSLKPEDTAVYYCAATYLVSSDKYDYWGQGTQVTVSS	high polyreactivity
QVQLVESGGGLVQAGGSLRLSCAASGFTFFSNAMGWYRQAPGKERELVAAITSSGGSTYADSVKGRFTISRDNAKNTVYLQMNSLKPEDTAVYYCAADAQAPPGGFKEYDYWGQGTQVTVSS	low polyreactivity
QVQLVESVGGLVQAGGSLRLSCAASGSMFKVYAMGWYRQAPGKEREFVAAITSSDSNTNYADSVKGRFTISRDNAKNTVYLQMNSLKPEDTAVYYCNKDGGGDSYWYDYWGQGTQVTVSS	low polyreactivity
QVQLVESGGGLVQAGGSLRLSCAASGRIFTGNTMGWYRQAPGKERELVATINSNGGSTYYADSVKGRFTISRDNAKNTVYLQMNSLKPEDTAVYYCAVVRNYVSRYRFYYWGQGTQVTVSS	high polyreactivity
QVQLVESGGGLVQAGGSLRLSCAASGSSFNGNAMGWYRQAPGKERELVAAISRKGGSTYYADSVKGRFTISRDNAKNTVYLQMNSLKPEDTAVYYCATDLTVYYSYYWMYWGQGTQVTVSS	low polyreactivity
QVQLVESGGGLVQAGGSLRLSCAASGFTFPPYAMGWYRQAPGKERELVAAITSSGGRTYYADSVKGRFTISRDNAKNTVYLQMNSLKPEDTAVYYCAAYGRFARMNYWGQGTQVTVSS	high polyreactivity

Sequence	polyreactivity (PSR sort gate)
QVQLVESGGGLVQAGGSLRLSCAASGTFVKYARGWYRQAPGKERELVATITGSGGSTYYADSVKGRFTISRDNAKNTVYLQMNSLKPEDTAVYYCAAREGYVFYKYDYWGQGTQVTVSS	low polyreactivity
QVQLVESGGGLVQAGGSLRLSCAASGRTFRTNAMGWYRQAPGKERELVAAISTGGGIANYADSVKGRCTISRDNAKNTVYLQMNSLKPEDTAVYYCNADIYTWFQIGGYQYDYWGQGTQVTVSS	low polyreactivity
QVQLVESGGGLVQAGGSLRLSCAASGFTLYNNAMGWYRQAPGKERELVARISGSGGSTYYADSVKGRFTISRDNAKNTVYLQMNSLKPEDTAVYYCNARATYVPTYGYTHWYNYWGQGTQVTVSS	low polyreactivity
QVQLVESGGGLVQAGGSLRLSCAASGITFRYYAMGWYRQAPGKERELVAAITGNGGGTYADSVKGRFTISRDNAKNTVYLQMNSLKPEVTAVYYCAADEPGLSWYDSYRYPDYGYDYWGQGTQVTVSS	low polyreactivity
QVQLVESGGGLVHAGGSLRLSCAACGSIYKYNAMGWYRQAPGKERELVAAISYSGCSTYYSDSVNGRFTISRDNAKNTVYLQMNSLKPEDTAVYYCAKSPRASQYNMYDYWGQGTKVTVSS	high polyreactivity
QVHLVESGGGLVQAGGSLRLSCAASGRIFGDYAMGWYRQATGKERELVAAINSSGTSTNYADSVKGRFTFSRDNAKNTVYLQMNSLKPEDTAVYYCNAEGTYRPEYDSWGQGTQVTVSS	low polyreactivity
QVQLVVSGGGLVQAGGSLRISCAASGITFGRYAMGRYRPAPGKERELVAAISWSGGSTYYADSVKGRFTISRDNAKNTVFLQMNSLKPEDTAVYYCALEWYYTSYHIRFYRDNYWGQGTQVTVSS	high polyreactivity
QVQLVESGGGLVQAGGSLRLSCAASGFIFYPYAMGWYRQAPGKERELVAVITSGGRTYYADSVKGRFTISRDNAKNTVYLQMNSLKPEDTAVYYCAARYGRIHWKANWPEYGYWGQGTQVTVSS	low polyreactivity
QVQLVESGGGLVQAGGSLRLSCAASGRIFSFYSMGWYRQAPAKERELVATISKRAGSTYYADSVKGRFTISRDNAKNTVYLQMNSLKPEDTAVYYCAARKWYYASSRWRDYWGQGTQVTVSS	high polyreactivity
QVQLVESGGGLVQAGGSLRLSCAASGSTFYTYAMGWYRQAPGKERELVAAITRGGGRTYYADSVKGRFTISRDNAKNTVYLQMNSLKPEDTAVYYCAATVGYGHSYAGWYWVDYWGQGTQVTVSS	high polyreactivity
QVQLVESGGGLVQAGGSLRLSCAASGSILYGNAMGWYRQAPGKERELVAAISWRGGRTYYADSVKGRFTISRDNAKNTVYLQMNSLKPEDTAVYYCAAQIGLVSGRDYWGQGTQVTVSS	high polyreactivity
QVQLVESGGGLVQAGGSLRLSCAPSGRTFLAYAMGWYRQAPGKEREVVAAISSSGSTTYYADSVKGRFTISRDNAKNTVYLQMNSLKPEDTAVYYCAASNGYRSSYYRYDYWGQGTQVTVSS	low polyreactivity
QVQLVETGGGLVKAGGSLRLSCAASGITFSVYTMGWDRQAPGKERELVASITRSVGSTYYADSVKGRFTISRDNAKNTVYLQMNSLKPEDTAVYYCAARRTVVTGRYYWGQGTQVTVSS	high polyreactivity
QVQLVESGGGLVQAGGSLRLSCAASGFIFGYYAMGWYRQAPGKERELVAAISWNGGSTYYADSVKGRFTISRDNAKNTVYLQMNSLKPEDTAVYYCAADGYETYYDYDYWGQGTQVTVSS	high polyreactivity
QVQLVEAGGCLVHAGGSLRLSCAASGRIFVGNAMGWYRQAPGKERELVAAINNGGTTYYADSVKGRFTIARDNGKNTVYLQMNSLKPEDTAVYHCAATPYRGTRSYLIGELDYWGQGTQVTVSS	low polyreactivity
QVHLVESGGGLFQAGGSLRLSCAASGGIFSIYAMGWYRQAPGKERELVAAISTSGGSTYYADSLKGRFTISRDNAKNSVYLQMNSLKPEDTAVYYCNARRGFYWSWRGRYISGDYWGQGTQVTVSS	high polyreactivity
QVQLVESGGGLVQAGGSLRLSCAACGRTFQHYAMGWYRQAPGKERELVAAISSGGRTYYADSVKGRFTISRDNAKNTVYLLMNSLKPEDTAVYYCAARYHGRDPRQIRYGYWGQGTQVNVSS	high polyreactivity
QVQLVESGGGLVQAGGSLRLSCAASGRTGSYAMGWYRQAPGQERELVAAISRRGANTYYADSVKGRFTISRDNAKNTVYLQMNSLKPEVTAVYYCAVPHLYSRVEYDYWGQGSQVTVSS	high polyreactivity
QVQLVESGGGLVQAGGSLRLSCAASGSTFEYYVMGWYRQAPGKERELVAAISGSGGGTYYADSVKGRFTISRDNAKNTVYLQMNSLKPEDTAVYYCAAVATQEKYDYWGQGTQVTVSS	low polyreactivity
QVQLVESVGGLVQAGGRLRLSCAASGRIFSFYAMGWYRPAPGKEREFVAAITYSGGSSYYADSVKGRFTNSRDNAKKTVYLQMNSLKPEDTAVYYCAARYRYITKYDYWGQGTQVTVSS	high polyreactivity
QVQLVESGGGLVQAGGSLRLSCPASGSTFRHYVMGRYRQAPGKERELVAAINWTSGSTNYADSVKGRFTISRDNAKNTVYFQMNSLKPEDTAVYYCAARGPVGYGWRYRPWHDYWGQGTQVTVSS	high polyreactivity
